Here are results for one protein from publication PMC11577821.

Substrate in data set [1]: O=C1CC(O)(c2ccc(O)cc2)Oc2cc(O)cc(O)c21
The data set can be described thus: purified protein. Conditions: UDP-Glc as sugar donor; C-glucosylation.

Substrate in data set [2]: O=C(CCc1ccc(O)cc1)c1c(O)cc(O)cc1O
The data set can be described thus: purified protein. Particulars: UDP-Glc as sugar donor; C-glucosylation.

B1: UGT708S6 (Dendrobium catenatum) (protein)
chain: MSSGDTNLPRVLLLPSSGMGHLVPFVRLASALSERCISVSLLAVRPTISAAESLLLSSLPSSLLLDFPIKPLDPSLFPPSSDPFFLQMEALRRSADLLPSFISTCSPPVSSLIIDISIASSFLPVAAAAKIPCFVLFTSSASMLALCSVFAFLSTPTAGADVNIAGGVLKIPTSSLPPPLRDPNHLFTTQFVENGRALAQANGILVNTFSALEPEVLVALNSGAVLPGLPPVIAIGPLPPVKKQPSLPSPALRWLDEQQEKSVMYVSFGSRTAMSKEQIRALGAGLENSGCRFFWVVKSAKVDREEVMEIEELLGEEYAKRVEERGLVVKEWVEQEVVLSHRAVAGFMSHCGWNSVTEAAAAGVRILAWPRMGDQRVNAAVVARSGLGIWPEKWAWEAEERVVAAEEIAVKVREMMRDERLAETAAQVQAEATAAVQEGGSLDQSCGYLLKKL
For B1, in the data set “purified protein [1]”, the Km (usually the concentration of substrate that gives half-maximal velocity) was determined as 276.900 µM; the Vmax (in general, the rate approached at saturating substrate) amounted to 7.68 µM/min; the kcat – broadly, the number of substrate molecules converted per active site and unit of time at saturation – was determined as 0.907 s⁻¹; the kcat/Km – broadly, the second-order rate constant that governs catalysis at low substrate concentration – stood at 3280 M⁻¹ s⁻¹. Also, in “purified protein [2]”, the Km is given as 545.831 µM, the Vmax came to 9.48 µM/min, the kcat came to 0.563 s⁻¹ and the kcat/Km amounted to 1030 M⁻¹ s⁻¹.
